Like-named read-outs stand apart in the source and are kept apart here.

The target of experiment [1] is T1, GST-human NOGO-A56 (human, UniProt P08515 1-218 = GST).
T1 construct: GST-tagged fusion expressed in E. coli BL21 and purified on glutathione-sepharose; coated on ELISA plates or amine-coupled to a CM5 chip; also called hNOGO; recombinant human NOGO
Briefly: ELISA, coated GST-human NOGO-A56, transfection supernatant, anti-human kappa-HRP, OD 490 nm. Here is the method:
(§1) GST-human NOGO-A56 (SEQ ID: 76) at 1 μg/ml in PBS was coated onto Nunc Immunosorp plates (100 μl per well) at 4° C. overnight. Wells were rinsed once with TBS+0.05% Tween (TBST) then incubated with 2% BSA in TBST to block non-specific binding sites at room temperature for 1 hour. Antibodies were diluted in TBST+2% BSA to 10 μg/ml and 1/2 dilutions made from this. Antibodies were added to wells in duplicate and incubated at room temperature for 1 hour. Wells were washed three times with TBST then incubated with anti-human kappa peroxidase conjugate (1:2000) for 1 hour. The wells were washed three times with TBST and then incubated with 100 μl OPD peroxidase substrate (Sigma) per well for 10 minutes. The colour reaction was stopped by the addition of 25 μl concentrated H₂SO₄. Optical density at 490 nm was measured using a plate reader. Background values read from wells with no antibody were subtracted.
(In general: An ELISA detects its analyte on a solid surface through an enzyme-linked reagent.)

The target in experiment [2] is T1, GST-human NOGO-A56. The description is as above. Here is the method: as §1
This is another data set of the same source.

The target of experiment [3] is T1, GST-human NOGO-A56. The description is as above. Here is the method:
as §1
The source holds these as a separate data set.

The target of experiment [4] is T1, GST-human NOGO-A56. The experiment is described as follows: SPR (Biacore 3000), GST-human NOGO-A56 amine-coupled to CM5, antibody as analyte; mean (SD) of four experiments. Here is the method:
(§2) The binding kinetics of the anti-NOGO monoclonal antibody (mAb) to recombinantly expressed human NOGO-A (GST-human NOGO-A56) was analysed using the Biacore3000 biosensor. The hNOGO-A chip was prepared as follows:
(§3) hNOGO (GST-human NOGO-A56) was immobilised to a CM5 chip by primary amine coupling using the Biacore Wizard program designed for targeted immobilisation levels. The CM5 sensor surface was activated by passing a solution of 50 mM N-hydroxy-succinimide (NHS) and 200 mM N-ethyl-N′-dimethylaminopropyl […] (EDC). Then hNOGO in sodium acetate buffer, pH5.0 or pH 4.5, was passed over the chip and immobilised. After immobilisation was complete any still activated esters were blocked by an injection of 1M ethanolamine hydrochloride, pH8.5.
(§4) The anti-NOGO mAbs were diluted down in HBS-EP (10 mM HEPES, pH 7.4, 150 mM NaCl, 3 mM EDTA, and 0.005% P-20 surfactant) and binding studies were carried out at range of defined antibody concentrations. All runs were referenced against a blanked sensor surface (one that had been activated and blocked as described earlier but had no addition of ligand). Analysis of binding was carried out using the BIAevaluation kinetic analysis software version 4.1. Biacore analysis of other antibodies of the invention essentially followed the same protocol as described herein.
Background: SPR reads the build-up and loss of mass on a sensor chip optically.

In experiment [5] the target is T1, GST-human NOGO-A56. Briefly: SPR (Biacore) off-rate ranking, CHO-K1 transient supernatant over GST-human NOGO-A56 chip; mean (SD) of two runs. Here is the method: as §3
The hNOGO chip was prepared as for kinetic analysis. Cell supernatants where taken directly from transient transfections of CHO-K1 cells. These were passed directly over the sensor surface and the interaction measured. A mock transfected cell supernatant was used for double referencing to remove any artefacts due to the tissue culture media. All runs were referenced against a blanked sensor surface (one that had been activated and blocked as described earlier but had no addition of ligand). Analysis of binding was carried out using the BIAevaluation kinetic analysis software version 4.1.

The target of experiment [6] is T1, GST-human NOGO-A56. Briefly: SPR (Biacore 3000), GST-human NOGO-A56 on CM5, antibody as analyte; mean (SD) of two experiments. Here is the method: as §3, §4
Experiment [7] deals with T1, GST-human NOGO-A56. The experiment is described as follows: SPR (Biacore 3000), GST-human NOGO-A56 on CM5, antibody as analyte; mean (SD) of two experiments; mean (SD) of two separate experiments. How it is done: as §3, §4
The target in experiment [8] is T1, GST-human NOGO-A56. Briefly: SPR (BiaCore kinetic analysis), human NOGO.
Experiment [9] addresses T1, GST-human NOGO-A56. Briefly: SPR (Biacore 3000), GST-human NOGO-A56 on CM5, antibody as analyte; single experiment. Here is the method: as §2, §3, §4
In experiment [10] the target is T1, GST-human NOGO-A56. Briefly: ELISA, coated GST-human NOGO-A56, transfection supernatant, anti-human kappa-HRP, OD 490 nm. How it is done: as §1
This is another data set of the same source.

Experiment [11] has as its target T1, GST-human NOGO-A56. Described as above. How it is done:
as §1
This is another data set of the same source.

For experiment [12], the target named is T1, GST-human NOGO-A56. The description is as above. Here is the method:
as §1
This is another data set of the same source.

T1 sequence (P08515 1-218, tags or fused parts left off): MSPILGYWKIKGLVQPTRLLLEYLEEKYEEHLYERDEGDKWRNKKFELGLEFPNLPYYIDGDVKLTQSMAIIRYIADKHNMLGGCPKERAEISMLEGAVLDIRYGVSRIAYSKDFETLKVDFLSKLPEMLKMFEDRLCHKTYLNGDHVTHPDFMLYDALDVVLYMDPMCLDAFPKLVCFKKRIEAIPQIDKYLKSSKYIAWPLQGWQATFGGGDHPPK

B1: H18L16 (antibody, human IgG1, kappa, V domains shown)
VH: QVQLVQSGAEVVKPGASVKLSCKASGYTFTSYWMHWVKQRPGQGLEWIGNINPSNGGTNYNEKFKSKATLTVDKSSSTAYMELSSLRSEDSAVYYCELGQGYWGQGTLVTVSS
VL: DIVMTQSPLSNPVTLGQPVSISCRSSKSLLYKDGKTYLNWFLQRPGQSPQLLIYLMSTRASGVPDRFSGGGSGTDFTLKISRVEAEDVGVYYCQQLVEYPLTFGQGTKLEIKR
notes: Humanised 2A10; also called H18L16 FL
As a reminder, the EC50 (read off the curve) is the concentration at which the effect is half-maximal. High values mean a need for much substance, low ones an effect from little substance. Broadly, the Kd is the constant that tells how readily two partners part at equilibrium. Low readings indicate tighter binding, high ones weaker binding. One may read the koff as the first-order rate constant of dissociation. Low readings indicate slow dissociation, high ones fast dissociation. As usually defined, the kon is the second-order rate constant of association. A high value points to faster complex formation. On to B1, for which the entries for the “EC50 (read off the curve)” value in the experiment with GST-human NOGO-A56 [1], with GST-human NOGO-A56 [2] and with GST-human NOGO-A56 [3] were roughly 0.4 µg/mL, roughly 0.4 µg/mL and roughly 0.04 µg/mL, respectively. Also, the Kd with GST-human NOGO-A56 [4] came to 1.62 nM. Moreover, the results for the koff in the experiment with GST-human NOGO-A56 [4] and with GST-human NOGO-A56 [5] were 0.00586 s⁻¹ and 0.00687 s⁻¹, respectively. The kon with GST-human NOGO-A56 [4] worked out at 3.64e+06 M⁻¹ s⁻¹.

B2: H6Lc (antibody, human IgG1, kappa, V domains shown)
VH: QVQLVQSGAEVKKPGASVKVSCKASGYTFTSYWMHWVRQAPGQGLEWIGNINPSNGGTNYNEKFKSRATMTRDTSTSTAYMELSSLRSEDTAVYYCELGQGYWGQGTLVTVSS
VL: DIVITQDELSNPVTSGESVSISCRSSKSLLYKDGKTYLNWFLQRPGQSPQLLIYLMSTRASGVSDRFSGSGSGTDFTLEISRVKAEDVGVYYCQQLVEYPLTFGAGTKLELKR
notes: Humanised heavy chain H6 paired with chimeric light chain Lc; The pairing is read from the name
Regarding B2, in the experiment with GST-human NOGO-A56 [6], the koff was 0.00284 s⁻¹ and the kon amounted to 2.17e+06 M⁻¹ s⁻¹. In addition, in the experiment with GST-human NOGO-A56 [7], the Kd came out at 2.21 nM.

B3: murine monoclonal antibody 2A10 (antibody, V domains shown)
VH: QVQLQQPGTELVKPGASVKLSCKASGYTFTSYWMHWVKQRPGQGLEWIGNINPSNGGTNYNEKFKSKATLTVDKSSSTAYMQLSSLTSEDSAVYYCELGQGYWGQGTTLTVSS
VL: DIVITQDELSNPVTSGESVSISCRSSKSLLYKDGKTYLNWFLQRPGQSPQLLIYLMSTRASGVSDRFSGSGSGTDFTLEISRVKAEDVGVYYCQQLVEYPLTFGAGTKLELK
notes: Murine antibody; also called donor antibody
B3: in the experiment with GST-human NOGO-A56 [8], the Kd is roughly 1 nM and the koff was roughly 0.00184 s⁻¹.

B4: HcLc (chimera of 2A10: murine 2A10 VH and VL with human IgG constant regions) (antibody, V domains shown)
VH: QVQLQQPGTELVKPGASVKLSCKASGYTFTSYWMHWVKQRPGQGLEWIGNINPSNGGTNYNEKFKSKATLTVDKSSSTAYMQLSSLTSEDSAVYYCELGQGYWGQGTLVTVSS
VL: DIVITQDELSNPVTSGESVSISCRSSKSLLYKDGKTYLNWFLQRPGQSPQLLIYLMSTRASGVSDRFSGSGSGTDFTLEISRVKAEDVGVYYCQQLVEYPLTFGAGTKLELKR
notes: Human gamma1 mutated constant region and human kappa; also called 2A10 chimeric antibody; the chimera
B4: the Kd is 1.6 nM in the experiment with GST-human NOGO-A56 [9], 0.995 nM with GST-human NOGO-A56 [6] and 1.41 nM in the experiment with GST-human NOGO-A56 [4]. Further, the koff with GST-human NOGO-A56 [9] turned out to be 0.00412 s⁻¹; in the experiment with GST-human NOGO-A56 [6] it was 0.00346 s⁻¹; with GST-human NOGO-A56 [4], 0.00378 s⁻¹; in the experiment with GST-human NOGO-A56 [5], 0.00376 s⁻¹. Besides, the kon with GST-human NOGO-A56 [9] was determined as 2.62e+06 M⁻¹ s⁻¹; in the experiment with GST-human NOGO-A56 [6], 3.52e+06 M⁻¹ s⁻¹; in the experiment with GST-human NOGO-A56 [4], 2.7e+06 M⁻¹ s⁻¹. The “EC50 (read off the curve)” value with GST-human NOGO-A56 [10] is roughly 0.09 µg/mL; in the experiment with GST-human NOGO-A56 [1], roughly 0.2 µg/mL; in the experiment with GST-human NOGO-A56 [2] it was roughly 0.2 µg/mL; with GST-human NOGO-A56 [11], roughly 0.05 µg/mL; with GST-human NOGO-A56 [12], roughly 0.02 µg/mL.

These data come from US20060029603A1 (GlaxoSmithKline, published 2006).
